Assay results taken from publication PMC2913173 (Journal of molecular biology, 2009).
Ends that are not written are not given here. eCPX = enhanced circularly permuted OmpX display protein

Biological target: T1, Bcl-xL (Homo sapiens, UniProt Q07817, DEL46-85)
Assay: not given
Settings: L78A amino acid change relative to Bak(72–87); cited from earlier work
In the case of “L78A: Bak(72–87) with the critical leucine in position 78 changed to alanine, displayed on eCPX (GQVGRQAAIIGDDINR-eCPX) [Construct L78A]”, the “Decrease in binding affinity of Bak(72–87) for Bcl-xL” value is listed as ~1000 fold.

Biological target: T1, Bcl-xL
Assay: Cell surface display equilibrium binding assay with flow cytometry
Settings: cells displaying Bak–eCPX fusions, biotinylated Bcl-xL and SAPE
For “Bak(72–85): Bak(72–87) with deletion of residues N86 and R87, eCPX fusion (GQVGRQLAIIGDDI-eCPX)”, the “Binding to Bcl-xL in words (fluorescence of cell population)” value (“Binding to Bcl-xL in words” for short) was “reduction in binding to nearly background levels”.
For “Bak(72–117): eCPX fusion protein comprising helices α3 and α4 of Bak (GQVGRQLAIIGDDINRRYDSEFQTMLQHLQPTAENAYEYFTKIATS-eCPX)”, the “Binding to Bcl-xL in words” value was “fluorescence only slightly above background levels”.
With “Bak(74–87) GG: eCPX–Bak(74–87) in which the GQ sequence preceding the Bak peptide was changed to GG (GGVGRQLAIIGDDINR-eCPX)” the “Binding to Bcl-xL in words” value was “bound Bcl-xL equally as well as Bak(72–87)”.
In the case of “mut7: Bak(72–87) library variant: position 74 L, 78 L, 81 L, 85 F (GQLGRQLAILGDDFNR-eCPX)”, the “Binding to Bcl-xL in words” value is reported as “highest fluorescence”.
In the case of “L78A: Bak(72–87) with the critical leucine in position 78 changed to alanine, displayed on eCPX (GQVGRQAAIIGDDINR-eCPX) [Construct L78A]”, the “Binding to Bcl-xL in words” value is reported as “only background fluorescence”.
With “mut8: Bak(72–87) library variant: position 74 L, 78 L, 81 F, 85 F (GQLGRQLAIFGDDFNR-eCPX)” the “Binding to Bcl-xL in words” value was “highest fluorescence”.
